Here are results for six sequences from the supplement of paper PMC12455559.

± gives the standard deviation of the averaged measurements.

A short description of data set [1]: melting temperature (DSF); higher = more thermostable. On the procedure: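 Candidate PET hydrolases were expressed in E. coli C41(DE3) in 2 mL autoinduction cultures in 24-deep-well plates, Ni-bead purified and released by SUMO protease cleavage on an OT-2 robot. Yield per well was measured by BCA; values below 25 ug (0.1 mg/mL) are below the detection threshold. Melting temperature was measured by differential scanning fluorimetry with Sypro Orange, ramping from 25 C at 0.3 C/step.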

A short description of data set [2]: purified protein yield per well (BCA); higher = higher soluble expression. In short, it runs like this: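 Expression was done in E. coli C41(DE3), using 2 mL autoinduction cultures with 100 µg/mL kanamycin incubated at 37 °C for 2 h and at 18 °C for 40 h. Protein was purified on Ni-charged magnetic beads and released by SUMO protease cleavage. Yield of purified protein per well was measured with the Pierce Rapid Gold BCA kit; values below 25 ug (0.1 mg/mL) are below detection.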

The nature of data set [3]: PET hydrolysis, aromatic products released after 48 h (umol product/mg enzyme); higher = more PET depolymerization activity. In short, it runs like this: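 Tagless, SUMO-cleaved candidate enzymes were purified on nickel beads, and 5 μg (50 μL) was added to 3.5 mg amorphous PET film or crystalline PET powder in 450 μL buffer. Buffers were 50 mM NaCitrate (pH 4.5, 5.5), 50 mM NaPhosphate (pH 6.5, 7.5) or glycine (pH 8.5). Sealed plates were incubated 48 h at 40 or 60 °C without shaking. PET hydrolysis activity is the aromatic product in the supernatant, read by absorbance at 260 and 280 nm against buffer blanks and expressed per mg enzyme.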

Where [4] appears, read: substrate: aFilm, 40 °C, pH 4.5.
Setting [5] is: substrate: aFilm, 40 °C, pH 5.5.
Where [6] appears, read: substrate: aFilm, 40 °C, pH 6.5.
The mark [7] stands for this setting: substrate: aFilm, 40 °C, pH 7.5.
[8] abbreviates: substrate: aFilm, 60 °C, pH 4.5.
Where [9] appears, read: substrate: aFilm, 60 °C, pH 5.5.
The mark [10] stands for this setting: substrate: aFilm, 60 °C, pH 6.5.
Setting [11] is: substrate: aFilm, 60 °C, pH 7.5.
Where [12] appears, read: substrate: cryPow, 40 °C, pH 4.5.
[13] abbreviates: substrate: cryPow, 40 °C, pH 5.5.
Setting [14] is: substrate: cryPow, 40 °C, pH 6.5.
Where [15] appears, read: substrate: cryPow, 40 °C, pH 7.5.
Where [16] appears, read: substrate: cryPow, 60 °C, pH 4.5.
Setting [17] is: substrate: cryPow, 60 °C, pH 5.5.
[18] abbreviates: substrate: cryPow, 60 °C, pH 6.5.
Where [19] appears, read: substrate: cryPow, 60 °C, pH 7.5.

In the case of “ADNPYQRGPDPTQSSVTAVNGPFANTSVSVPTGYGFNGGRIYYPTDTSQGTFGAIAISPGYTALFSAELAWMGPWLASHGFVVIGIETNSRNDFDTARGTQLLAALDYLTQQSPVRDRVDPTRLAVAGHSMGGGGALSAAMRRPSLKAVVGIAPYSPSSNLANDRVPTMILSGQADTVVTPSYATGLYNSLPSTTESVYLEVAGADHGFMVGRPNPVMVRTMLPFVKMFVDNDARYSQFLCPLLDSSGVVTYRSTCPLLPTTPTTPTPTTPGPTTPGPTPTVSPSVPPTSAGEIVGTQSGRCIDVPNASRNNGTRVQLYDCNRQTNQTWTYTSGKQLQVYGNMCLDAAGTGNGAAVQIYSCHSQTNQQWNINANGTISNVQSGRCLDAWSTANGAQIQLYDCHGQTNQQFRLVARA [ESM075]”, the melting temperature in data set [1] turned out to be 62.2 C. The “purified protein yield per well” value in data set [2] turned out to be 233 µg. Also, the PET hydrolysis in data set [3] (setting [4]) is under 3; in data set [3] (setting [5]), 4; in data set [3] (setting [6]) it was under 3; in data set [3] (setting [7]) it was under 3; in data set [3] (setting [8]), under 3; in data set [3] (setting [9]), under 3. The PET hydrolysis is under 3 in data set [3] (setting [10]); under 3 in data set [3] (setting [11]); 12.5 ± 2.1 in data set [3] (setting [12]); 21 ± 1.4 in data set [3] (setting [13]); 23 ± 1.4 in data set [3] (setting [14]); 7 in data set [3] (setting [15]). Also, the PET hydrolysis in data set [3] (setting [16]) is under 3; in data set [3] (setting [17]) it was 1.5 ± 2.1; in data set [3] (setting [18]) it was under 3; in data set [3] (setting [19]), under 3.
Sequence “QSSSAAANPYERGPAPTVSSVAAQRGTFATAEVTVPPGNGFNGGKIYYPTDTSLGTWGAVAAVPGYTARWSAEGAWMGPWLASFGFVVIGIDTNSPNDYDTARGTQLLAALDYLTRKSPVHDRVDPNRLGVIGHSMGGGGAISAAERRPSLKAAVPLAPFSPSQNLSSLRVPTMIMGARDDGTVTPSYLDGLYSGMPAATQSAYIELTSGGHGFPTWGNSHVTRRAIPWLKIFLDNDTRYTQFLCPSPADSREVSRSQTKCPYVPPGGTTTPPSGEQIVGAASGRCLDVVNSSQTSGAQAHPWDCADRPGQKWARTDAGELRVYSNKCLDAEASGTSAGTRVVIWACHGRQNQRWNVNANGTITSVPSGLCLDTYNGGTGNGAQSVLGNCNGASTQRWTLR [TEP086]” registered a melting temperature in data set [1] of 56.8 C. In data set [2], the “purified protein yield per well” value is 385 µg. Moreover, the PET hydrolysis in data set [3] (setting [4]), in data set [3] (setting [5]), in data set [3] (setting [6]), in data set [3] (setting [7]), in data set [3] (setting [8]) and in data set [3] (setting [9]) was under 3 throughout. The PET hydrolysis in data set [3] (setting [10]), in data set [3] (setting [11]), in data set [3] (setting [12]), in data set [3] (setting [13]), in data set [3] (setting [14]) and in data set [3] (setting [15]) was under 3 throughout. Besides, the PET hydrolysis in data set [3] (setting [16]), in data set [3] (setting [17]), in data set [3] (setting [18]) and in data set [3] (setting [19]) was under 3 each time.
In data set [1], “SAQVTRQAAGSYARGPAPTLAGIRAALGPFAYSTVTVTAAQAGGAFGGGTIYYPDDTSQGTFGGVAAVPGYQSAEKAVAWLGPRLASQGFVVITIATNGLTDQPTARGKQLLGALDYLTAQSPAAVRQRLDPNRLAVTGHSMGGGGTLYAAWTRPSLKAAVPLAPWHTIKNWSGITVPTLVQGGTQDTTAQVGTFAEPIYQSLTGARERAYAEIADAAHGTFVRENPLIGALEVAWLKRFVDDDGRYEQFLCPAPADSELTEYRDSCPSS [DP009]” registered a melting temperature of 46.9 C. The “purified protein yield per well” value in data set [2] was found to be 165 µg. The PET hydrolysis is 4 in data set [3] (setting [13]); 5 in data set [3] (setting [14]); 6 in data set [3] (setting [15]); 10 in data set [3] (substrate: cryPow, 40 °C, pH 8.5); under 3 in data set [3] (setting [17]); under 3 in data set [3] (setting [18]). Moreover, the PET hydrolysis was under 3 in data set [3] (setting [19]) and under 3 in data set [3] (substrate: cryPow, 60 °C, pH 8.5).
As for “ENAIINGTYSLIVTQSGKALDTSQWGTIDGTNITLNDYWGGESQKFIITPVDGIWHRITPVIAPDQAFDVSKCSPNVGANIQTWSYEGGACQQFRFAETGNGTYQIITRGTDMSLNVNNLSEENDTNVMQSTSTGKENQIFTLRRHAESHISGNCPDGAICRDEEAPGLYDGKGPYNVRSYELPGAYVTLPATARVYYPANAEPPYSGIVFCPPFMTKQIAFAAWGPWFASHGMVLVTMDTTTIFDQVTARDNQQWRVVKALRRENTRLGSPLRGKLDTDKIGIMGWSMGGGASWINAGKHRDELKTVISLAGHNMTAWYNTDIYSWYSPEELLDAAYASGRLIKIPALIINGALDTTILGGLGQSDGVYRSISNTPKVLAVLGLAGHFAWGYPTQAGRGVASLVLAFEKTFLDGDTRWAPYIQKPSAPMRKWRTADLP [TEP050]”, the melting temperature in data set [1] is 46.3 C. In data set [2], the “purified protein yield per well” value is 60.6 µg. The PET hydrolysis in data set [3] (setting [12]), in data set [3] (setting [13]), in data set [3] (setting [14]), in data set [3] (setting [15]), in data set [3] (setting [16]) and in data set [3] (setting [17]) was under 3 in each case. Further, the PET hydrolysis in data set [3] (setting [18]) and in data set [3] (setting [19]) was under 3 each time.
For the sequence “ADNPYQRGPDPTRSSVAAVNGPFANTSVAVPTGYGFNGGRIYYPTDTSQGTFGAVAISPGYTALFSVELAWMGPWLASHGFVVIGIETNSRNDFDTARGTQLLAALDYLVQQSPVRDRIDPNRLAVSGHSMGGGGALSAALRRPALKAAVGIAPYSPSSNLANDRVPTMVFAGQADTVVTPSYATGLYNSLPTTTESAYLEVAGADHGFMVGRSNPVLIRTMLPFLKMFVDNDARYSQFLCPLADNSGVVSYRSTCPLLPPTSTTPPPIPSDTPPPIPTTPPQTTPPPSNPPGAASLIVGAQSNRCLDVPNASRANGTRVQLWDCNRGTNQSWTYTTNKQLRVYGDMCLDAAGSGNGAAVQIYGCHSQTNQQWNVNANGTISSVQSGRCLDVWSTANGAQVQLYDCHGQTNQRFTLTPLT [ESM101]”, the melting temperature in data set [1] is 58.6 C. Also, the “purified protein yield per well” value in data set [2] was 149 µg. The PET hydrolysis in data set [3] (setting [12]) was 7; in data set [3] (setting [13]) it was 19; in data set [3] (setting [14]), 8; in data set [3] (setting [15]), 4; in data set [3] (setting [16]), under 3; in data set [3] (setting [17]), under 3. For the same sequence, the PET hydrolysis in data set [3] (setting [18]) and in data set [3] (setting [19]) was under 3 in each case.
On to “ADNPYQRGPDPTPQSISAPTGPFATASVTVPRQGNFGGGVIYYPTDTSQGTFGAVAISPGLNGTWPGIAWLGPRLSSQGFVVFGIDTLGLSDSTASRGSQLLAALDYLTQTSSVRTRVDSSRLAVAGHSMGGGGAFEAALRRPALKAAIPNAPFFPGSASNVRVPTLITAMQNDSLVGQNRNAYNGIPAGVEKAYVELAGAGHNQIGQPTTAIARNWIPWLKIFVDSDARYHQFLCPTTDMSGLSQYLNTCPLISTTPPTSSPSAQPTTPGPTGPPPGGACAATYRTVNSWSDGYQGEMTVQAGSSAINGWTVRWTMSGGQTISQVWNGTLVAGSGAAAVRNVAYNGSLAAGASTTFGFISSGTPSATSITCGSP [ESM081]”, for which the melting temperature in data set [1] was determined as 68.2 C. In addition, the “purified protein yield per well” value in data set [2] was found to be 182 µg. Besides, the PET hydrolysis was found to be 4 in data set [3] (setting [12]), 17 in data set [3] (setting [13]), 45 in data set [3] (setting [14]) and 82 in data set [3] (setting [15]).
